In paper PMC4939007, “The GH51 α-L-arabinofuranosidase from Paenibacillus sp. THS1 is multifunctional, hydrolyzing main-chain and side-chain glycosidic bonds in heteroxylans” (Biotechnology for Biofuels, 2016):

How the values were obtained:
Assay in all cases: purified protein
[1] = system: O=[N+]([O-])c1ccc(O[C@@H]2O[C@@H]([C@H](O)CO)[C@H](O)[C@H]2O)cc1; details: 50 mM sodium phosphate pH 6.5, 1 mg/mL BSA, 60 °C, 0–14 mM substrate, authors' caution: maximum substrate below 2 x KM
[2] = system: O=[N+]([O-])c1ccc(O[C@@H]2OC[C@@H](O)[C@H](O)[C@H]2O)cc1; details: 50 mM sodium phosphate pH 6.5, 1 mg/mL BSA, 60 °C, 0–40 mM substrate, authors' caution: maximum substrate below 2 x KM
[3] = system: O=[N+]([O-])c1ccc(O[C@@H]2O[C@@H](CO)[C@H](O)[C@H]2O)cc1; details: 50 mM sodium phosphate pH 6.5, 1 mg/mL BSA, 60 °C, 0–5 mM substrate

What does the source list for THSAbf (Paenibacillus sp. HanTHS1)?
Km [1]: 8.6 ± 0.9 mM; kcat [1]: 327 ± 20 s⁻¹; kcat/Km [1]: 38000 M⁻¹ s⁻¹; Km [2]: 23.8 ± 4.1 mM; kcat [2]: 10.6 ± 0.9 s⁻¹; kcat/Km [2]: 440 M⁻¹ s⁻¹; Km [3]: 0.31 ± 0.1 mM; kcat [3]: 328 ± 23 s⁻¹; kcat/Km [3]: 1.05e+06 M⁻¹ s⁻¹
